{
  "source": "patent US20060193821",
  "about": "“Aptamers to the human IL-12 cytokine family and their use as autoimmune disease therapeutics” (published 2006)",
  "binders": {"B1": {"name": "AMX86-E10 (ssRNA)", "RNA": "GGGAAAAGCGAAUCAUACACAAGAUUGUCUCGGAUUGGUCACUCCCAUUUUUGUUCGCUUAACGGCUCCGCCAGAGACCAACCGAGAA", "modifications": "2'-F C,U"}, "B2": {"name": "AMX86-C9 (ssRNA)", "RNA": "GGGAAAAGCGAAUCAUACACAAGACUCAUGGAUAUGGCCUAGCAGCCGUGGAAGCGGUCAUUCUGCUCCGCCAGAGACCAACCGAGAA", "modifications": "2'-F C,U"}, "B3": {"name": "AMX86-A7 (ssRNA)", "RNA": "GGGAAAAGCGAAUCAUACACAAGAUCUCUUUGGCCGACGCAACAAUGCUCUUUUCCGACCUUGCGCUCCGCCAGAGACCAACCGAGAA", "modifications": "2'-F C,U"}, "B4": {"name": "AMX86-A10 (ssRNA)", "RNA": "GGGAAAAGCGAAUCAUACACAAGAGUAAUGUGGGUCCCGAUGAUUCGCUGUGCGGCGUUUGUAGCUCCGCCAGAGACCAACCGAGAA", "modifications": "2'-F C,U"}, "B5": {"name": "AMX86-F12 (ssRNA)", "RNA": "GGGAAAAGCGAAUCAUACACAAGAGUGUUGAAUGAGCGCUGGUGGACAGAUCUUUGGUUACAGAGCUCCGCCAGAGACCAACCGAGAA", "modifications": "2'-F C,U"}, "B6": {"name": "AMX86-B7 (ssRNA)", "RNA": "GGGAAAAGCGAAUCAUACACAAGAAUGAAUUCCGUCCACGGGCGCCCGAUGAUGUCAGUUUUCGGCUCCGCCAGAGACCAACCGAGAA", "modifications": "2'-F C,U"}, "B7": {"name": "AMX86-B11 (ssRNA)", "RNA": "GGGAAAAGCGAAUCAUACACAAGAGUAUCAUUCGGCUGGUGGGAGAAAUCUCUGUAGAUAUAGAGCUCCGCCAGAGACCAACCGAGAA", "modifications": "2'-F C,U"}, "B8": {"name": "AMX86-F11 (ssRNA)", "RNA": "GGGAAAAGCGAAUCAUACACAAGACCAUCGGACGAGGCGGGUCACCUUUUACGCUUUCGAGCUGGCUCCGCCAGAGACCAACCGAGAA", "modifications": "2'-F C,U"}, "B9": {"name": "AMX91-H8 (ssRNA)", "RNA": "GGGAAAAGCGAAUCAUACACAAGAACGCAUAGUCGGAUUUACCGAUCAUUCUGUGCCUUCGUGACGCUCCGCCAGAGACCAACCGAGAA", "modifications": "2'-F C,U"}, "B10": {"name": "AMX86-A11 (ssRNA)", "RNA": "GGGAAAAGCGAAUCAUACACAAGAACGGCUAGGCAUCAAUGGCCAGCAAAAAUAGUCGUGUAAUGCUCCGCCAGAGACCAACCGAGAA", "modifications": "2'-F C,U"}, "B11": {"name": "AMX86-B10 (ssRNA)", "RNA": "GGGAAAAGCGAAUCAUACACAAGAGAACGAGUAUAUUUGCGCUGGCGGAGAAGUCUCUCGAAGGGAGCUCCGCCAGAGACCAACCGAGAA", "modifications": "2'-F C,U"}, "B12": {"name": "AMX86-C5 (ssRNA)", "RNA": "GGGAAAAGCGAAUCAUACACAAGAGUUUUAUGUGGGUCCCGAUGAUUAACUUUAUUGGCGCAUUGCUCCGCCAGAGACCAACCGAGAA", "modifications": "2'-F C,U"}},
  "key": {"[1]": {"molecular_target": "IL-23 (human, p19/p40 heterodimer) (Homo sapiens, UniProt Q9NPF7;P29460 SEQ:20-189,SEQ:23-328)", "sequence (Q9NPF7 20-189, chain 1 of 2)": "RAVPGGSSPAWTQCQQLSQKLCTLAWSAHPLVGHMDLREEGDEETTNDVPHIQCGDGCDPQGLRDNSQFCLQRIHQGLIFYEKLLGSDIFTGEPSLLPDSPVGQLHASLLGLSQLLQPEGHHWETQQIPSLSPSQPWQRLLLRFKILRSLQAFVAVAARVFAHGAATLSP", "sequence (P29460 23-328, chain 2 of 2)": "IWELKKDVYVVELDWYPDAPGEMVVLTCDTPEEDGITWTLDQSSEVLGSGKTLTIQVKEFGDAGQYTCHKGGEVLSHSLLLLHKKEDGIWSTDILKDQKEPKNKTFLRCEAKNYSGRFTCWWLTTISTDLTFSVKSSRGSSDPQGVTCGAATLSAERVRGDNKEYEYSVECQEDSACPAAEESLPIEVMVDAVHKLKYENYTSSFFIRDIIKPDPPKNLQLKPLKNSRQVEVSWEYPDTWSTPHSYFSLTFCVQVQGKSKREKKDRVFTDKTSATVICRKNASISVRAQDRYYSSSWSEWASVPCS", "experiment": "filter; SHMCK, tRNA", "conditions": "tags: R&D Systems, carrier free", "how_it_was_run": "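Trace ³²P-labeled RNA incubated with a dilution series of h-IL-23 for 30 min at room temperature in 1×SHMCK (pH 7.4, 1 mM MgCl₂, 1 mM CaCl₂) plus 0.1 mg/mL tRNA. Bound RNA captured on nitrocellulose, free RNA on nylon; quantified by phosphorimaging. Clone screens used single points of 75, 100 or 200 nM IL-23 or IL-12.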"}, "[2]": {"molecular_target": "IL-12 (human, p35/p40 heterodimer) (Homo sapiens, UniProt P29459;P29460 SEQ:57-253,SEQ:23-328)", "sequence (P29459 23-219, chain 1 of 2)": "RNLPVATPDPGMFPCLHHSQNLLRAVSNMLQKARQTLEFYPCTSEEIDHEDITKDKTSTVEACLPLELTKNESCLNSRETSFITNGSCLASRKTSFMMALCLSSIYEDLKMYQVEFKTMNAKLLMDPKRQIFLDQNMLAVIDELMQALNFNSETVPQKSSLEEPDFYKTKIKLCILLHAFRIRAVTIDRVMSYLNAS", "sequence (P29460 23-328, chain 2 of 2)": "as the sequence (P29460 23-328, chain 2 of 2) above", "experiment": "filter; tRNA", "description": "Monitoring Progress of rRfY Selection. Dot blot binding assays were performed throughout the selections to monitor the protein binding affinity of the pools. Trace ³²P-labeled RNA was combined with a dilution series of h-IL-23 and incubated at room temperature for 30 minutes in 1×SHMCK (20 mM Hepes, 120 mM NaCl, 5 mM KCl, 1 mM MgCl₂, 1 mM CaCl₂, pH 7.4) plus 0.1 mg/mL tRNA for a final volume of 20 μL. The binding reactions were analyzed by nitrocellulose filtration using a Minifold I dot-blot, 96-well vacuum filtration manifold (Schleicher & Schuell, Keene, N.H.). A three-layer filtration medium was used, consisting (from top to bottom) of Protran nitrocellulose (Schleicher & Schuell), Hybond-P nylon (Amersham Biosciences) and GB002 gel blot paper (Schleicher & Schuell). RNA that is bound to protein is captured on the nitrocellulose filter, whereas the non-protein bound RNA is captured on the nylon filter. The gel blot paper was included simply as a supporting medium for the other filters. Following filtration, the filter layers were separated, dried and exposed on a phosphor screen (Amersham Biosciences, Piscataway, N.J.) and quantified using a Storm 860 Phosphorimager® blot imaging system (Amersham Biosciences).\nWhen a significant positive ratio of binding of RNA in the presence of h-IL-23 versus in the absence of h-IL-23 was seen, the pools were cloned using a TOPO TA cloning kit (Invitrogen, Carlsbad, Calif.) according to the manufacturer's instructions. For the h-IL-23 and X-IL-23 selections, the Round 8 pool templates were cloned, and 32 individual clones from each selections were assayed in a 1-point dot blot screen (+/−75 nM h-IL-23, as well as a separate screen at +/−75 nM h-IL-12). For the PN-IL-23 selection, the Round 10 pool was cloned and sequenced, and 8 unique clones were assayed for protein binding in a 1-point dot blot screen (+/−200 nM h-IL-23 and a separate screen at +/−200 nM h-IL-12). Subsequently, the Round 10 PN-IL-23 pool was re-cloned for further sequences, as well as the R12 PN-IL-23 pool, and the clones were assayed for protein binding in a 1 point do blot screen (+/−100 nM h-IL-23 or +/−200 nM h-IL-12)."}},
  "data": [
    {"binder": "B1", "values": [
      {"measurement": "Kd", "setting": "[1]", "result": 218, "unit": "nM"},
      {"measurement": "Kd", "setting": "[2]", "result": 905, "unit": "nM"}
    ]},
    {"binder": "B2", "values": [
      {"measurement": "Kd", "setting": "[1]", "result": 97.9, "unit": "nM"},
      {"measurement": "Kd", "setting": "[2]", "result": 673, "unit": "nM"}
    ]},
    {"binder": "B3", "values": [
      {"measurement": "Kd", "setting": "[1]", "result": 57.7, "unit": "nM"},
      {"measurement": "Kd", "setting": "[2]", "result": 668, "unit": "nM"}
    ]},
    {"binder": "B4", "values": [
      {"measurement": "Kd", "setting": "[1]", "result": 461, "unit": "nM"},
      {"measurement": "Kd", "setting": "[2]", "result": 289, "unit": "nM"}
    ]},
    {"binder": "B5", "values": [
      {"measurement": "Kd", "setting": "[1]", "result": 424, "unit": "nM"},
      {"measurement": "Kd", "setting": "[2]", "result": 2910, "unit": "nM"}
    ]},
    {"binder": "B6", "values": [
      {"measurement": "Kd", "setting": "[1]", "result": 111, "unit": "nM"},
      {"measurement": "Kd", "setting": "[2]", "result": 934, "unit": "nM"}
    ]},
    {"binder": "B7", "values": [
      {"measurement": "Kd", "setting": "[1]", "result": 180, "unit": "nM"},
      {"measurement": "Kd", "setting": "[2]", "result": 5950, "unit": "nM"}
    ]},
    {"binder": "B8", "values": [
      {"measurement": "Kd", "setting": "[1]", "result": 256, "unit": "nM"},
      {"measurement": "Kd", "setting": "[2]", "result": 541, "unit": "nM"}
    ]},
    {"binder": "B9", "values": [
      {"measurement": "Kd", "setting": "[1]", "result": 16.6, "unit": "nM"},
      {"measurement": "Kd", "setting": "[2]", "result": 243, "unit": "nM"}
    ]},
    {"binder": "B10", "values": [
      {"measurement": "Kd", "setting": "[1]", "result": 157, "unit": "nM"},
      {"measurement": "Kd", "setting": "[2]", "result": 182, "unit": "nM"}
    ]},
    {"binder": "B11", "values": [
      {"measurement": "Kd", "setting": "[1]", "result": 77.8, "unit": "nM"},
      {"measurement": "Kd", "setting": "[2]", "result": 1040, "unit": "nM"}
    ]},
    {"binder": "B12", "values": [
      {"measurement": "Kd", "setting": "[1]", "result": 80.3, "unit": "nM"},
      {"measurement": "Kd", "setting": "[2]", "result": 400, "unit": "nM"}
    ]}
  ]
}
